Source: article PMC4569402

Biological target: wild-type influenza B virus nucleoprotein (BNP), B/panama/45/1990 (influenza B virus (B/panama/45/1990))
Assay: negative-stain electron microscopy

Substance “wild-type influenza B virus nucleoprotein (BNP), B/panama/45/1990 (natural protein)” has a stoichiometry N greater than 6.
